The target in one experiment is T1, murine B7-H4 (murine, UniProt Q7TSP5 25-257).
T1 construct: whole, on cells; also called mB7-H4
T1 sequence (looked up): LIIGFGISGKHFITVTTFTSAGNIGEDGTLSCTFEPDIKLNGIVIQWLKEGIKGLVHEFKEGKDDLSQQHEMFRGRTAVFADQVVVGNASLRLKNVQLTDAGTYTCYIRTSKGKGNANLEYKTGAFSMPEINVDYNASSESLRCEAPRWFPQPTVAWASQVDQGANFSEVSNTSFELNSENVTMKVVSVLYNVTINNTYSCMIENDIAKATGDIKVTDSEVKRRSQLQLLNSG
Put plainly: flow cytometry on CHO-K1/mB7-H4 cells. The source says:
(§1) The CHO-K1 cell strain CHO-K1/huB7-H4 over-expressing human B7-H4 (produced in-house by Harbour BioMed), the CHO-K1 cell strain CHO-K1/cynoB7-H4 over-expressing cynomolgus monkey B7-H4 (produced in-house by Harbour BioMed), the CHO-K1 cell strain CHO-K1/mB7-H4 over-expressing murine B7-H4 (produced in-house by Harbour BioMed), SK-BR-3 and MDA-MB-468 cells were digested. T cells were isolated using the human T cell isolation kit (Miltenyi, #130-096-535) as described in the method of the instruction, and resuspended with PBS containing 2% FBS. The cell density was adjusted to 1×10⁶ cells/mL. The cells were seeded onto a 96-well V-bottom plate (Coming, #3894) at 100 μL/well, followed by the addition of test antibodies diluted in a 3-fold gradient at a concentration that was 2 times the final concentration, each at 100 μL/well. The cells were incubated away from light at 4° C. for 2 h. Thereafter, the cells in each well were rinsed twice with 100 μL of pre-cooled PBS containing 2% BSA, and centrifuged at 500 g at 4° C. for 5 min, and then the supernatant was discarded. […] Finally, the cells in each well were resuspended with 200 μL of pre-cooled PBS containing 2% BSA, and the fluorescence signal values were read using an ACEA Novocyte3000 flow cytometer.
On the technique in general: A flow cytometer gives signals particle by particle.

The target of another experiment is T2, human B7-H4 (human, UniProt Q7Z7D3 25-282).
T2 construct: whole, on cells; also called huB7-H4; B7-H4 on CHO-K1/huB7-H4, SK-BR-3 and MDA-MB-468 cells
T2 sequence (looked up): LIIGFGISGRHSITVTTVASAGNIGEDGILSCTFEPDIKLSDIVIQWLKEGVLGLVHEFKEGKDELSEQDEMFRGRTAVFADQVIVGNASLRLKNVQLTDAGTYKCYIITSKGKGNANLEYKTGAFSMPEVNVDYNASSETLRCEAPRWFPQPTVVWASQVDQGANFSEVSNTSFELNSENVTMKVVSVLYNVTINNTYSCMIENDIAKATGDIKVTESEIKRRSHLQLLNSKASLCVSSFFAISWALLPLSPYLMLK
Nature of the experiment: flow cytometry on CHO-K1/huB7-H4 cells.
Excerpt: as §1

The results in this text go back to patent US20250326843A1 (HARBOUR BIOMED SHANGHAI, published 2025).

B1: B7-H4×CD3 bispecific antibody PR003733 (bispecific antibody, human IgG1, lambda, L234A L235A)
light: QAVVTQEPSLTVSPGGTVTLTCRSSTGAVTTSNYANWVQQKPGQAPRGLIGGTNKRAPWTPARFSGSLLGDKAALTLLGAQPEDEAEYFCALWYSNLWVFGGGTKLTVLGQPKAAPSVTLFPPSSEELQANKATLVCLISDFYPGAVTVAWKADSSPVKAGVETTTPSKQSNNKYAASSYLSLTPEQWKSHRSYSCQVTHEGSTVEKTVAPTECS
heavy: not shown
chain: EIVMTQSPASLSVSPGERATLSCRASQSVSSNLAWYQQKPGQAPRLLIYGASTRATGIPARVSGGGSGTEFTLTISSLQSEDFAVYYCQQYKNWPFTFGPGTKLEIKGGGGSGGGGSGGGGSGGGGSQVQLVQSGAEVKKPGSSMRVSCKASEDTFSSYAISWVRQAPGQGLEWMGGTAPIFGTTNYAQKFQGRVTITADKSTSTAYMELSSLRSEDTAVYYCARGGPYFDYWGQGTLVTVSSASEPKSSDKTHTCPPCPAPEAAGGPSVFLFPPKPKDTLMISRTPEVTCVVVDVSHEDPEVKFNWYVDGVEVHNAKTKPREEQYNSTYRVVSVLTVLHQDWLNGKEYKCKVSNKALPAPIEKTISKAKGQPREPQVCTLPPSREEMTKNQVSLSCAVKGFYPSDIAVEWESNGQPENNYKTTPPVLDSDGSFFLVSKLTVDKSRWQQGNVFSCSVMHEALHNHYTQKSLSLSPGK
notes: Fab-Fc-scFv asymmetric structure (structure A); CD3 arm from PR001848, B7-H4 arm from PR003366
For the molecule B1, the binding result with murine B7-H4 was “binds”.

B2: B7-H4×CD3 bispecific antibody PR003899 (bispecific antibody, human IgG1, lambda, L234A L235A)
light: B1 light
heavy: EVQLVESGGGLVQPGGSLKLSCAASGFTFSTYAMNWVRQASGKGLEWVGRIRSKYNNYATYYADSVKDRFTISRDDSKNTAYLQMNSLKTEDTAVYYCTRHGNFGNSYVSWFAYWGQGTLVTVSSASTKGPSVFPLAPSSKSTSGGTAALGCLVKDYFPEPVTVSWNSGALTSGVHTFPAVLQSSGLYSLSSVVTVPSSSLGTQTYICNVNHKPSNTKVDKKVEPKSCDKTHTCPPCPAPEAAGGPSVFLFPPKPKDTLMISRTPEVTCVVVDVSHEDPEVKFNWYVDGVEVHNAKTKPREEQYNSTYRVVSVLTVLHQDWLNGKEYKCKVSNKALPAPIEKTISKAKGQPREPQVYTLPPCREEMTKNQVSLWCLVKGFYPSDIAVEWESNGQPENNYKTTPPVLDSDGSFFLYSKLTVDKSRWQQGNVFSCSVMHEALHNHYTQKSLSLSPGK
chain: B1 chain
notes: Fab-Fc-scFv asymmetric structure (structure A); CD3 arm from PR003886, B7-H4 arm from PR003366
As to B2, the binding result in the experiment with murine B7-H4 and with human B7-H4 was “binds” throughout.
